Experimental data as given in article PMC9482650, “Quantitative fragmentomics allow affinity mapping of interactomes” (Nature Communications, 2022).

Key:
Experiment in all cases: holdup assay
Set-up in all cases: key: below the threshold = too weak to quantify, mostly under pKd 3.1 to 4
CARD11, Q9BXL7 = target: T1, CARD11, Q9BXL7
T1 sequence (Q9BXL7 662-765, limits assumed, looked up): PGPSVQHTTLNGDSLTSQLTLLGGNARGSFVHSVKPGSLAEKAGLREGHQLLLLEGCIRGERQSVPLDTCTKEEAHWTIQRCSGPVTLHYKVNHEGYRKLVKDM

DFNB31_2, Q9P202 = target: T2, DFNB31_2, Q9P202
T2 sequence (Q9P202 274-371, limits assumed, looked up): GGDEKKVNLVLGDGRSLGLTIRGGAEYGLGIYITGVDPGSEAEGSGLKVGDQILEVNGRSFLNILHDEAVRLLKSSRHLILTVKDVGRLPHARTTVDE

DLG1_1, Q12959 = target: DLG1_1, Q12959
FRMPD1, Q5SYB0 = target: T3, FRMPD1, Q5SYB0
T3 sequence (Q5SYB0 52-145, limits assumed, looked up): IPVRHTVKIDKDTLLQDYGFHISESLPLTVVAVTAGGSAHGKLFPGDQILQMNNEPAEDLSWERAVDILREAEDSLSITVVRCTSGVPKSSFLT

FRMPD2_3, Q68DX3 = target: FRMPD2_3, Q68DX3
GORASP1, Q9BQQ3 = target: GORASP1, Q9BQQ3
GRASP, Q7Z6J2 = target: GRASP, Q7Z6J2
GRIP2_3, Q9C0E4 = target: GRIP2_3, Q9C0E4
IL16_1, Q14005 = target: IL16_1, Q14005
Inadl_2, Q8NI35 = target: Inadl_2, Q8NI35
LAP2, Q96RT1 = target: LAP2, Q96RT1
LIN7A, O14910 = target: T4, LIN7A, O14910
T4 sequence (O14910 103-200, limits assumed, looked up): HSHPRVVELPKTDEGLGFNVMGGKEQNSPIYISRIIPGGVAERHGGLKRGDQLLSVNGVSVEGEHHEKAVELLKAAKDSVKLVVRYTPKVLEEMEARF

LNX1_1, Q8TBB1 = target: LNX1_1, Q8TBB1
MAGI1_2, Q96QZ7 = target: MAGI1_2, Q96QZ7
MAGI2_6, Q86UL8 = target: MAGI2_6, Q86UL8
MAGI3_2, Q5TCQ9 = target: MAGI3_2, Q5TCQ9
MPP2, Q14168 = target: T5, MPP2, Q14168
T5 sequence (Q14168 180-250, limits assumed, looked up): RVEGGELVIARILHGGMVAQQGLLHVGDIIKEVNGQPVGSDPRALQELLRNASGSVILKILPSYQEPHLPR

MPP7, Q5T2T1 = target: T6, MPP7, Q5T2T1
T6 sequence (Q5T2T1 134-230, limits assumed, looked up): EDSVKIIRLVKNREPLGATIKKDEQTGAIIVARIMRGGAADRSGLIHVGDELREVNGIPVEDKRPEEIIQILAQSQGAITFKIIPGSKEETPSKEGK

NHERF4_2, Q86UT5 = target: NHERF4_2, Q86UT5
PCLO, Q9Y6V0 = target: T7, PCLO, Q9Y6V0
T7 sequence (Q9Y6V0 4491-4600, limits assumed, looked up): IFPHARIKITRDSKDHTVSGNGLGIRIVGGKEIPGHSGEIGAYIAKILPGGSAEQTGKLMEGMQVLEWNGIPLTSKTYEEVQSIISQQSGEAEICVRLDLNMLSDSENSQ

PICK1, Q9NRD5 = target: PICK1, Q9NRD5
RADIL, Q96JH8 = target: T8, RADIL, Q96JH8
T8 sequence (Q96JH8 971-1071, limits assumed, looked up): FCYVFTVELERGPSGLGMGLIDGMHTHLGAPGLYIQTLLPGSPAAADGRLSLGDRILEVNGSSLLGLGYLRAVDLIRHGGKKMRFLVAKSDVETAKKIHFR

RAPGEF6, Q8TEU7 = target: T9, RAPGEF6, Q8TEU7
T9 sequence (Q8TEU7 525-625, limits assumed, looked up): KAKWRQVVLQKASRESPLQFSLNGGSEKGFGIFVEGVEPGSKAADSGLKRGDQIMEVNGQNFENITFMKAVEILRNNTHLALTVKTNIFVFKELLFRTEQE

SCRIB_1, Q14160 = target: SCRIB_1, Q14160
SNTG2, Q9NY99 = target: T10, SNTG2, Q9NY99
T10 sequence (Q9NY99 68-166, limits assumed, looked up): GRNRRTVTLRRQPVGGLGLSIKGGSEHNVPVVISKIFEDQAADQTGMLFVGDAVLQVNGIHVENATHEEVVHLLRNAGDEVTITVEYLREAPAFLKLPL

SYNJ2BP, P57105 = target: T11, SYNJ2BP, P57105
T11 sequence (P57105 8-110, limits assumed, looked up): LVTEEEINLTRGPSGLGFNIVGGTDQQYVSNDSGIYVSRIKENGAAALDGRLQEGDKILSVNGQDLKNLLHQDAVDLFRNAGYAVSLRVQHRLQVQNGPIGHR

TJP2_1, Q9UDY2 = target: TJP2_1, Q9UDY2
[1] = plain residues with an end cap or a label only (N-terminal biotin on a linker: ahx)
[2] = plain residues with an end cap or a label only (N-terminal biotin on a linker: ado-ado)

Chain of GRASP, Q7Z6J2 (Q7Z6J2 96-193): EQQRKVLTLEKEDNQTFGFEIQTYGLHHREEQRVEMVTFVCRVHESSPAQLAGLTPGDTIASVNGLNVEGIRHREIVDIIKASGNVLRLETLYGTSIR
Chain of IL16_1, Q14005 (Q14005 210-306): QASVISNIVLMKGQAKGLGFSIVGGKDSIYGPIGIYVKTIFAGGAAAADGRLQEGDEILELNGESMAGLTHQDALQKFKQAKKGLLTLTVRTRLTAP
Chain of NHERF4_2, Q86UT5 (Q86UT5 220-308): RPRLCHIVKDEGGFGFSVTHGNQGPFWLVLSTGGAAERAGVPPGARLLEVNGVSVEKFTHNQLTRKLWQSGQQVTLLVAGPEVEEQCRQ
Chain of LAP2, Q96RT1 (Q96RT1 other isoform, or with tags, fused parts or gaps): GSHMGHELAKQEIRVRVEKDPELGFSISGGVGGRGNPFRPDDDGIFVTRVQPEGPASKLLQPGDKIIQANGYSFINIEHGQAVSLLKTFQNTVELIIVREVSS
Chain of MAGI3_2, Q5TCQ9 (Q5TCQ9 398-503): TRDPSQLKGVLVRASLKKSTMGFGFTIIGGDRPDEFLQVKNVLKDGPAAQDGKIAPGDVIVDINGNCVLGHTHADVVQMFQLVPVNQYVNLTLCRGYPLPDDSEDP
Chain of GRIP2_3, Q9C0E4 (Q9C0E4 238-339): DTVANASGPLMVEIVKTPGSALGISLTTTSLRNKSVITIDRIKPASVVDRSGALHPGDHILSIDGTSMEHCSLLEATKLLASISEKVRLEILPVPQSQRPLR
Chain of PICK1, Q9NRD5 (Q9NRD5 17-115): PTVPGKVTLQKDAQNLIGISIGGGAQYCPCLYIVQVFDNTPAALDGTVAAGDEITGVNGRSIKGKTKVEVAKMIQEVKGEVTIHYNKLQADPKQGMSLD
Chain of GORASP1, Q9BQQ3 (Q9BQQ3 1-208): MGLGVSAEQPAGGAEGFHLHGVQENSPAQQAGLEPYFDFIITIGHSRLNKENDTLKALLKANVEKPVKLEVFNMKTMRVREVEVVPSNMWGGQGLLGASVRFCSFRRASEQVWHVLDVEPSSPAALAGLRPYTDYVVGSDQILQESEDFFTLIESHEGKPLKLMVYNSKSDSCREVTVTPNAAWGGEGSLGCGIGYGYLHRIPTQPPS
Chain of TJP2_1, Q9UDY2 (Q9UDY2 24-128): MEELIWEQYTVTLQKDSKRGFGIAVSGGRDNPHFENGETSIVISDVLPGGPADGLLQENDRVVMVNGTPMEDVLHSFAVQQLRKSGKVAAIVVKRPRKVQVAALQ
Chain of Inadl_2, Q8NI35 (Q8NI35 238-335): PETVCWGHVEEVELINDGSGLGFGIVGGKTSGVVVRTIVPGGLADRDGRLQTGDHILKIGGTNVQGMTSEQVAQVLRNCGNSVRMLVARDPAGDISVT
Chain of MAGI1_2, Q96QZ7 (Q96QZ7 456-580): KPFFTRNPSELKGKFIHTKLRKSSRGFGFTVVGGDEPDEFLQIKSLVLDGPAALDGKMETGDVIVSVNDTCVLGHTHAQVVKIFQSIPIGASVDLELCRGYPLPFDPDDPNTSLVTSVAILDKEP
Chain of LNX1_1, Q8TBB1 (Q8TBB1 261-371): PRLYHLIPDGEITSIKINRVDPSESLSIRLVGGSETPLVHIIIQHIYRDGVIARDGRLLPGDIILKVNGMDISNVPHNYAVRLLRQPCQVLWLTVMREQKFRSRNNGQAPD
Chain of SCRIB_1, Q14160 (Q14160 718-814): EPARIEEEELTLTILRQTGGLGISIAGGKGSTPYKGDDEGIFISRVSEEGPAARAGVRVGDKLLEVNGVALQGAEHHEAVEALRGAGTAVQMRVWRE
Chain of FRMPD2_3, Q68DX3 (Q68DX3 1073-1166): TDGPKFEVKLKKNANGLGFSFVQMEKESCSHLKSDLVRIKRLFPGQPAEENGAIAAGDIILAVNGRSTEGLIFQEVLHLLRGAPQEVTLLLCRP
Chain of MAGI2_6, Q86UL8 (Q86UL8 1141-1229): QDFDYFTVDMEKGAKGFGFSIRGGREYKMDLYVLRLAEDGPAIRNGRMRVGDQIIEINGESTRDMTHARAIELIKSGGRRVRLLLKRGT

## KDECVIATEV [DLL1, O00548]
CARD11, Q9BXL7; [1]
  pKd: below the threshold
DFNB31_2, Q9P202; [1]
  pKd: below the threshold
DLG1_1, Q12959; [1]
  pKd: 3.72
FRMPD1, Q5SYB0; [1]
  pKd: below the threshold
FRMPD2_3, Q68DX3; [1]
  pKd: below the threshold
GORASP1, Q9BQQ3; [1]
  pKd: below the threshold
GRASP, Q7Z6J2; [1]
  pKd: 4.31
GRIP2_3, Q9C0E4; [1]
  pKd: below the threshold
IL16_1, Q14005; [1]
  pKd: 3.47
Inadl_2, Q8NI35; [1]
  pKd: below the threshold
LAP2, Q96RT1; [1]
  pKd: 3.59
LIN7A, O14910; [1]
  pKd: below the threshold
LNX1_1, Q8TBB1; [1]
  pKd: 3.72
MAGI1_2, Q96QZ7; [1]
  pKd: below the threshold
MAGI2_6, Q86UL8; [1]
  pKd: 4.55
MAGI3_2, Q5TCQ9; [1]
  pKd: below the threshold
MPP2, Q14168; [1]
  pKd: below the threshold
MPP7, Q5T2T1; [1]
  pKd: below the threshold
NHERF4_2, Q86UT5; [1]
  pKd: below the threshold
PCLO, Q9Y6V0; [1]
  pKd: below the threshold
PICK1, Q9NRD5; [1]
  pKd: below the threshold
RADIL, Q96JH8; [1]
  pKd: 3.61
RAPGEF6, Q8TEU7; [1]
  pKd: below the threshold
SCRIB_1, Q14160; [1]
  pKd: below the threshold
SNTG2, Q9NY99; [1]
  pKd: below the threshold
SYNJ2BP, P57105; [1]
  pKd: 4.33
TJP2_1, Q9UDY2; [1]
  pKd: below the threshold

## PDSYHRRDFW [U2AF2, P26368]
CARD11, Q9BXL7; [2]
  pKd: below the threshold
DFNB31_2, Q9P202; [2]
  pKd: below the threshold
DLG1_1, Q12959; [2]
  pKd: below the threshold
FRMPD1, Q5SYB0; [2]
  pKd: below the threshold
FRMPD2_3, Q68DX3; [2]
  pKd: below the threshold
GORASP1, Q9BQQ3; [2]
  pKd: 3.52
GRASP, Q7Z6J2; [2]
  pKd: below the threshold
GRIP2_3, Q9C0E4; [2]
  pKd: below the threshold
IL16_1, Q14005; [2]
  pKd: below the threshold
Inadl_2, Q8NI35; [2]
  pKd: below the threshold
LAP2, Q96RT1; [2]
  pKd: below the threshold
LIN7A, O14910; [2]
  pKd: below the threshold
LNX1_1, Q8TBB1; [2]
  pKd: below the threshold
MAGI1_2, Q96QZ7; [2]
  pKd: below the threshold
MAGI2_6, Q86UL8; [2]
  pKd: below the threshold
MAGI3_2, Q5TCQ9; [2]
  pKd: below the threshold
MPP2, Q14168; [2]
  pKd: 3.69
MPP7, Q5T2T1; [2]
  pKd: below the threshold
NHERF4_2, Q86UT5; [2]
  pKd: 3.64
PCLO, Q9Y6V0; [2]
  pKd: below the threshold
PICK1, Q9NRD5; [2]
  pKd: 4.17
RADIL, Q96JH8; [2]
  pKd: below the threshold
RAPGEF6, Q8TEU7; [2]
  pKd: below the threshold
SCRIB_1, Q14160; [2]
  pKd: below the threshold
SNTG2, Q9NY99; [2]
  pKd: 3.72
SYNJ2BP, P57105; [2]
  pKd: below the threshold
TJP2_1, Q9UDY2; [2]
  pKd: 3.56

## AKPQPVDSWV [ARVCF, O00192]
CARD11, Q9BXL7; [1]
  pKd: below the threshold
DFNB31_2, Q9P202; [1]
  pKd: below the threshold
DLG1_1, Q12959; [1]
  pKd: 4.29
FRMPD1, Q5SYB0; [1]
  pKd: below the threshold
FRMPD2_3, Q68DX3; [1]
  pKd: below the threshold
GORASP1, Q9BQQ3; [1]
  pKd: 4
GRASP, Q7Z6J2; [1]
  pKd: below the threshold
GRIP2_3, Q9C0E4; [1]
  pKd: below the threshold
IL16_1, Q14005; [1]
  pKd: 4.1
Inadl_2, Q8NI35; [1]
  pKd: below the threshold
LAP2, Q96RT1; [1]
  pKd: 5.73
LIN7A, O14910; [1]
  pKd: below the threshold
LNX1_1, Q8TBB1; [1]
  pKd: below the threshold
MAGI1_2, Q96QZ7; [1]
  pKd: below the threshold
MAGI2_6, Q86UL8; [1]
  pKd: 5.48
MAGI3_2, Q5TCQ9; [1]
  pKd: 3.68
MPP2, Q14168; [1]
  pKd: below the threshold
MPP7, Q5T2T1; [1]
  pKd: below the threshold
NHERF4_2, Q86UT5; [1]
  pKd: below the threshold
PCLO, Q9Y6V0; [1]
  pKd: below the threshold
PICK1, Q9NRD5; [1]
  pKd: below the threshold
RADIL, Q96JH8; [1]
  pKd: 4.46
RAPGEF6, Q8TEU7; [1]
  pKd: below the threshold
SCRIB_1, Q14160; [1]
  pKd: 3.74
SNTG2, Q9NY99; [1]
  pKd: below the threshold
SYNJ2BP, P57105; [1]
  pKd: 5.04
TJP2_1, Q9UDY2; [1]
  pKd: 4.77
